According to PMC2891263 (Biochemistry, 2010):

Key:
[1] = target: rhodamine-labeled MetJ (MetJ-A1C-rhodamine) (E. coli) (UniProt P0A8U6); assay: AUC
AUC = target: the molecule itself; assay: AUC

Molecule | stoichiometry N [1] | stoichiometry N (AUC)
rhodamine-labeled MetJ (MetJ-A1C-rhodamine) (from UniProt P0A8U6 1-105) (natural protein) | 2 | 
unlabeled MetJ (methionine repressor protein) (natural protein, E. coli, UniProt P0A8U6 1-105, looked up) MAEWSGEYISPYAEHGKKSEQVKKITVSIPLKVLKILTDERTRRQVNNLRHATNSELLCEAFLHAFTGQPLPDDADLRKERSDEIPEAAKEIMREMGINPETWEY |  | 2
